This is an account of results in article PMC5843810 (EJNMMI Radiopharmacy and Chemistry, 2016).

The target of experiment [1] is T1, MC1R (mouse (endogenous in B16/F10), UniProt Q01727 1-315).
T1 construct: also called MCR1R
Briefly: radioligand binding; MC1R binding affinity (Ki) of the unlabelled peptides determined in B16/F10 melanoma cells; the competing ligand is not named. The note with it: one partner purified.

The target in experiment [2] is T1, MC1R. The experiment is described as follows: radioligand binding; receptor affinity (Kd) of the 99mTc-labelled peptide; B16/F10 melanoma cells are the only cells named. The settings on record: one partner purified.

Bridges are numbered along the chain shown (N, C = ends). [ ]: non-standard residue; d: D form. Ahx = NCCCCCC(=O)O; βAla = NCCC(=O)O

T1 sequence (Q01727 whole entry): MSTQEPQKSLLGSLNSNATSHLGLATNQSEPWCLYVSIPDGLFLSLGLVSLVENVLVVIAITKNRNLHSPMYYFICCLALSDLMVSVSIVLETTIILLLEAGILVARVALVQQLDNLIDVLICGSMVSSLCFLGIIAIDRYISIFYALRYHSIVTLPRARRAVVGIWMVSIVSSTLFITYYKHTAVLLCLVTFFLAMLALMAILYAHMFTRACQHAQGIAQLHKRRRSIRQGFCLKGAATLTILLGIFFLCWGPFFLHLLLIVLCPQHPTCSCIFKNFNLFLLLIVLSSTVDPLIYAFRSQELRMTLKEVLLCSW

As to CXXXDHFRWG (Ahx at 2, βAla at 3, Nle at 4 (each written X); D-Phe at 7; C-terminal amide) [NAP-NS1, linear H-Cys-Ahx-βAla-Nle-Asp-His-D-Phe-Arg-Trp-Gly-NH2], the Ki with MC1R [1] came to 0.9 ± 0.3 nM.

B1: NAP-NS2, lactam bridge-cyclized H-Cys-Ahx-βAla3-c[Lys4-Glu-His-D-Phe-Arg-Trp-Glu10]-Arg11-Pro-Val-NH2 (peptide)
chain: H-C[Ahx][βAla]KEH[dF]RWERPV-NH2
modifications: lactam 4-10
SMILES: CC(C)[C@H](NC(=O)[C@@H]1CCCN1C(=O)[C@H](CCCNC(=N)N)NC(=O)[C@@H]1CCC(=O)NCCCC[C@H](NC(=O)CCNC(=O)CCCCCNC(=O)[C@@H](N)CS)C(=O)N[C@@H](CCC(=O)O)C(=O)N[C@@H](Cc2c[nH]cn2)C(=O)N[C@H](Cc2ccccc2)C(=O)N[C@@H](CCCNC(=N)N)C(=O)N[C@@H](Cc2c[nH]c3ccccc23)C(=O)N1)C(N)=O
On to B1, for which the affinity with MC1R [1], expressed as Ki, was 7.1 ± 2.4 nM. This Ki lies about 7.9-fold higher than the previous one.

B2: [99mTc(N)(NAP-NS1)(PNP3)]+ (peptide)
chain: CXXXDHFRWG
modifications: Ahx at 2, βAla at 3, Nle at 4 (each written X); D-Phe at 7; C-terminal amide; [99mTc(N)(PNP3)] label (PNP3 = N,N-bis(dimethoxypropylphosphinoethyl)methoxyethylamine)
With B2, in the experiment with MC1R [2], the affinity, expressed as Kd, was 7.1 ± 0.5 nM.
